For three molecules, Kd results are on record in patent US20170349669A1 (Hoffmann-La Roche, published 2017).

One assay has as its target T1, human IL17 (human, UniProt Q16552 24-155).
T1 construct: Used as analyte in solution; also called IL17-A
T1 sequence (looked up): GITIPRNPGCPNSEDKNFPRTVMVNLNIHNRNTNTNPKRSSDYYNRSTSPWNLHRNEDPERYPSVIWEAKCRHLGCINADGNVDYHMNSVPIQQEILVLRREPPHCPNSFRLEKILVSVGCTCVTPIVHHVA
Put plainly: SPR Biacore T200 25 C, antibody captured via anti-human F(ab')2, human IL17 as analyte, 1:1 Langmuir. How it is done:
Around 6000 resonance units (RU) of the capturing system (15 μg/ml goat anti human F(ab′)2; Order Code: 28958325; GE Healthcare Bio-Sciences AB, Schweden) were coupled on a CM5 chip at pH 5.0 by using an amine coupling kit supplied by the GE Healthcare. The sample and system buffer was PBS-T (10 mM phosphate buffered saline including 0.05% Tween 20) pH 7.4. The bispecific antibody was captured by injecting a 50 nM solution for 90 sec at a flow of 10 μl/min. Association was measured by injection human IL17 in various concentrations in solution for 3 min at a flow of 30 μl/min starting with 50 nM in 1:1 serial dilutions. The dissociation phase was monitored for up to 10 min and triggered by switching from the sample solution to running buffer. The surface was regenerated twice by 60 sec wash with a 10 mM glycine pH 2.1 solution at a flow rate of 30 μl/min. Bulk refractive index differences were corrected by subtracting the response obtained from a goat anti human F(ab′)2 surface. Blank injections are also subtracted (=double referencing). For calculation of apparent KD and other kinetic parameters, the Langmuir 1:1 model was used.

Another assay has as its target T2, TWEAK (human, UniProt O43508 94-249, limits assumed).
T2 construct: The assay paragraph says only 'TWEAK'; also called human TWEAK; TNF-related weak inducer of apoptosis
T2 sequence (looked up): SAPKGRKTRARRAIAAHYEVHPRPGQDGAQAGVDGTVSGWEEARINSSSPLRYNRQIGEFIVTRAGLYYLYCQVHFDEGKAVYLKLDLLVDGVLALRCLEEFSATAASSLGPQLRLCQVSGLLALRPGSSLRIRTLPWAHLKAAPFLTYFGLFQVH
Put plainly: SPR Biacore T200 25 C, apparent KD, TWEAK amine-coupled on C1 chip, antibody as analyte.

In a further assay the target is T3, human Ang-2-RBD-Fc (human, UniProt O15123 275-496, limits assumed).
T3 construct: domain: RBD; Used as analyte in solution; The KD is called apparent; not shown: Fc part
T3 sequence (looked up): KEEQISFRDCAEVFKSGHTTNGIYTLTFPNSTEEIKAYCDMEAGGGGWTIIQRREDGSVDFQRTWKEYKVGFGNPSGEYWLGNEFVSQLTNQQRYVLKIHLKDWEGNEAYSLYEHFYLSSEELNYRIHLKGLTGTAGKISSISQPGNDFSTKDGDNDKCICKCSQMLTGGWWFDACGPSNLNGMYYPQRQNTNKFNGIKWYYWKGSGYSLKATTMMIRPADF
Put plainly: SPR Biacore T200, apparent KD, antibody captured via anti-human F(ab')2, Ang2-RBD-Fc as analyte. The protocol: (§1) Binding of indicated antibodies to human Ang-2-RBD-Fc was investigated by surface plasmon resonance using a BIACORE® T200 instrument (GE Healthcare). Around 8000 (RU) of goat anti human F(ab′)₂ (10 μg/ml anti human F(ab)′₂; Order Code: 28958325; GE Healthcare Bio-Sciences AB, Sweden) were coupled on a Series S CM5 chip (GE Healthcare BR-1005-30) at pH 5.0 by using an amine coupling kit supplied by the GE Healthcare. HBS-N (10 mM HEPES, 150 mM NaCl pH 7.4, GE Healthcare) was used as running buffer during the immobilization procedure. For the following kinetic characterization, sample and running buffer was PBS-T (10 mM phosphate buffered saline including 0.05% Tween20) at pH 7.4. The flow cell was set to 25° C.—and the sample block set to 12° C.—and primed with running buffer twice prior to kinetic characterization.
The bispecific antibody was captured by injecting a 5 nM solution for 25 sec at a flow of 5 μl/min. The association was measured by injection of human Ang2-RBD-Fc in various concentrations in solution for 120 sec at a flow of 30 μl/min starting with 100 nM in 1:3 serial dilutions. The dissociation phase was monitored for up to 180 sec and triggered by switching from the sample solution to running buffer. The surface was regenerated by 60 sec washing with a Glycine pH 2.1 solution at a flow rate of 30 μl/min. Bulk refractive index differences were corrected by subtracting the response obtained from a goat anti human F(ab′)₂ surface. Blank injections are also subtracted (=double referencing). For calculation of apparent KD the Langmuir 1:1 model was used.
(In SPR one partner is held on a chip, and binding of the other changes the refractive index at the surface.)

Another assay addresses T4, human VEGFA-121-His (human, UniProt P15692-9 27-147).
T4 construct: Captured on an anti-His antibody surface; P15692 is the canonical VEGF-A entry, and the 121 isoform is one of its splice forms; also called VEFGA-121-His; not shown: His tag
T4 sequence (looked up): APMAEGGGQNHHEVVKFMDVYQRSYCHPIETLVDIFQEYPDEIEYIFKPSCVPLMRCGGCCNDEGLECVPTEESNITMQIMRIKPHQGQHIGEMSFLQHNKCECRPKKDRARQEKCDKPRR
Put plainly: SPR Biacore T200, VEGFA-121-His captured via anti-His, antibody as analyte, 1:1 Langmuir. The protocol:
as §1, with “VEGFA-121” for “Ang-2-RBD-Fc”, “10000” for “8000”, “of” for “of goat”, “His antibody (1” for “human F(ab′)₂ (10”, “His antibody;” for “human F(ab)′₂;”, “28995056;” for “28958325;”
VEFGA-121-His was captured by injecting a 0.5 μg/ml solution for 30 sec at a flow of 5 μl/min. The association was measured by injection of the indicated antibodies in various concentrations in solution for 180 sec at a flow of 30 μl/min starting with 1000 nM in 1:3 serial dilutions. The dissociation phase was monitored for up to 600 sec and triggered by switching from the sample solution to running buffer. The surface was regenerated by 60 sec washing with a Glycine pH 1.5 solution at a flow rate of 30 μl/min. Bulk refractive index differences were corrected by subtracting the response obtained from a anti His antibody surface. Blank injections are also subtracted (=double referencing). For calculation of KD and other kinetic parameters the Langmuir 1:1 model was used.

A value given as a limit tells only on which side of the number the result lay.

B1: TweakIL17_102 (bispecific antibody, human IgG4 S228P, kappa)
heavy 1: DIQMTQSPSSVSASVGDRVTITCQASQNIYSNLAWYQQKPGKAPKLLIYTASYLASGVPSRFSGSGSGTDYTLTISSLQPEDFATYYCQTAYYNSRPDTVAFGGGTKVEIKRTVAAPSVFIFPPSDEQLKSGTASVVCLLNNFYPREAKVQWKVDNALQSGNSQESVTEQDSKDSTYSLSSTLTLSKADYEKHKVYACEVTHQGLSSPVTKSFNRGECPPCPPCPAPEFEGGPSVFLFPPKPKDTLMISRTPEVTCVVVDVSQEDPEVQFNWYVDGVEVHNAKTKPREEQFNSTYRVVSVLTVLHQDWLNGKEYKCKVSNKGLPSSIEKTISKAKGQPREPQVYTLPPCQEEMTKNQVSLWCLVKGFYPSDIAVEWESNGQPENNYKTTPPVLDSDGSFFLYSRLTVDKSRWQEGNVFSCSVMHEALHNHYTQKSLSLSL
light 1: QVQLVQSGAEVKKPGSSVKVSCKASGFDFSTYYMSWVRQAPGQGLEWMGTVYVRQGTTYYASWLNGRVTITADESTSTAYMELSSLRSEDTAVYYCARGGYNYDDAFVIWGQGTLVTVSSASTKGPSVFPLAPCSRSTSESTAALGCLVKDYFPEPVTVSWNSGALTSGVHTFPAVLQSSGLYSLSSVVTVPSSSLGTKTYTCNVDHKPSNTKVDKRVESKYG
heavy 2: EVQLVESGGGLVQPGGSLRLSCAASGFSLDSYGVHWVRQATGKGLEWVSVIWSDGTTTYNSALKSRFTISRENAKNSLYLQMNSLRAGDTAVYYCARDTHYRLYYYAMDYWGQGTTVTVSSASTKGPSVFPLAPCSRSTSESTAALGCLVEDYFPEPVTVSWNSGALTSGVHTFPAVLQSSGLYSLSSVVTVPSSSLGTKTYTCNVDHKPSNTKVDERVESKYGPPCPPCPAPEFEGGPSVFLFPPKPKDTLMISRTPEVTCVVVDVSQEDPEVQFNWYVDGVEVHNAKTKPREEQFNSTYRVVSVLTVLHQDWLNGKEYKCKVSNKGLPSSIEKTISKAKGQPREPQVCTLPPSQEEMTKNQVSLSCAVKGFYPSDIAVEWESNGQPENNYKTTPPVLDSDGSFFLVSRLTVDKSRWQEGNVFSCSVMHEALHNHYTQKSLSLSL
light 2: DIVMTQSPLSLPVTPGEPASISCRSSQSLVHSNGDTYFHWYLQKPGQSPQLLIYKVSNRFSGVPDRFSGSGSGTDFTLKISRVEAEDVGVYYCSQTTHAPFTFGQGTKLEIKRTVAAPSVFIFPPSDKKLKSGTASVVCLLNNFYPREAKVQWKVDNALQSGNSQESVTEQDSKDSTYSLSSTLTLSKADYEKHKVYACEVTHQGLSSPVTKSFNRGEC
notes: also called TweakIL17_0102
Turning to B1, the Kd was 0.1 nM in the assay with human IL17 and less than 0.1 nM with TWEAK.

B2: Ang2VEGF_469 (bispecific antibody, human IgG1, kappa)
heavy 1: not shown
light 1: EVQLVESGGGLVQPGGSLRLSCAASGYTFTNYGMNWVRQAPGKGLEWVGWINTYTGEPTYAADFKRRFTFSLDTSKSTAYLQMNSLRAEDTAVYYCAKYPHYYGSSHWYFDVWGQGTLVTVSSASTKGPSVFPLAPSSKSTSGGTAALGCLVEDYFPEPVTVSWNSGALTSGVHTFPAVLQSSGLYSLSSVVTVPSSSLGTQTYICNVNHKPSNTKVDEKVEPKSC
heavy 2: not shown
light 2: QPGLTQPPSVSVAPGQTARITCGGNNIGSKSVHWYQQKPGQAPVLVVYDDSDRPSGIPERFSGSNSGNTATLTISRVEAGDEADYYCQVWDSSSDHYVFGTGTKVTVLRTVAAPSVFIFPPSDEQLKSGTASVVCLLNNFYPREAKVQWKVDNALQSGNSQESVTEQDSKDSTYSLSSTLTLSKADYEKHKVYACEVTHQGLSSPVTKSFNRGEC
notes: The charged substitutions are in the crossed (VEGF) arm
As for B2, the Kd in the assay with human Ang-2-RBD-Fc came to 3 nM; in the assay with human VEGFA-121-His, 13 nM.

B3: Ang2VEGF_470 (bispecific antibody, human IgG1, kappa)
heavy 1: not shown
light 1: EVQLVESGGGLVQPGGSLRLSCAASGYTFTNYGMNWVRQAPGKGLEWVGWINTYTGEPTYAADFKRRFTFSLDTSKSTAYLQMNSLRAEDTAVYYCAKYPHYYGSSHWYFDVWGQGTLVTVSSASTKGPSVFPLAPSSKSTSGGTAALGCLVEDYFPEPVTVSWNSGALTSGVHTFPAVLQSSGLYSLSSVVTVPSSSLGTQTYICNVNHKPSNTKVDEKVEPKSC
heavy 2: not shown
light 2: QPGLTQPPSVSVAPGQTARITCGGNNIGSKSVHWYQQKPGQAPVLVVYDDSDRPSGIPERFSGSNSGNTATLTISRVEAGDEADYYCQVWDSSSDHYVFGTGTKVTVLRTVAAPSVFIFPPSDEELKSGTASVVCLLNNFYPREAKVQWKVDNALQSGNSQESVTEQDSKDSTYSLSSTLTLSKADYEKHKVYACEVTHQGLSSPVTKSFNRGEC
notes: The charged substitutions are in the crossed (VEGF) arm, with Q124E added in the Ang2 light chain
Turning to B3, the results for the Kd with human Ang-2-RBD-Fc and with human VEGFA-121-His were 3 nM and 12 nM, respectively.
